# Data taken from PMC4188797 (Neuropharmacology, 2014).
# B1: metabotropic glutamate receptor 1 splice variant mGluR1b (endogenous, rat brain) (receptor, rat (endogenous in rat brain), UniProt P23385-2 19-906, looked up)
# chain: LPRMPDRKVLLAGASSQRSVARMDGDVIIGALFSVHHQPPAEKVPERKCGEIREQYGIQRVEAMFHTLDKINADPVLLPNITLGSEIRDSCWHSSVALEQSIEFIRDSLISIRDEKDGLNRCLPDGQTLPPGRTKKPIAGVIGPGSSSVAIQVQNLLQLFDIPQIAYSATSIDLSDKTLYKYFLRVVPSDTLQARAMLDIVKRYNWTYVSAVHTEGNYGESGMDAFKELAAQEGLCIAHSDKIYSNAGEKSFDRLLRKLRERLPKARVVVCFCEGMTVRGLLSAMRRLGVVGEFSLIGSDGWADRDEVIEGYEVEANGGITIKLQSPEVRSFDDYFLKLRLDTNTRNPWFPEFWQHRFQCRLPGHLLENPNFKKVCTGNESLEENYVQDSKMGFVINAIYAMAHGLQNMHHALCPGHVGLCDAMKPIDGRKLLDFLIKSSFVGVSGEEVWFDEKGDAPGRYDIMNLQYTEANRYDYVHVGTWHEGVLNIDDYKIQMNKSGMVRSVCSEPCLKGQIKVIRKGEVSCCWICTACKENEFVQDEFTCRACDLGWWPNAELTGCEPIPVRYLEWSDIESIIAIAFSCLGILVTLFVTLIFVLYRDTPVVKSSSRELCYIILAGIFLGYVCPFTLIAKPTTTSCYLQRLLVGLSSAMCYSALVTKTNRIARILAGSKKKICTRKPRFMSAWAQVIIASILISVQLTLVVTLIIMEPPMPILSYPSIKEVYLICNTSNLGVVAPVGYNGLLIMSCTYYAFKTRNVPANFNEAKYIAFTMYTTCIIWLAFVPIYFGSNYKIITTCFAVSLSVTVALGCMFTPKMYIIIAKPERNVRSAFTTSDVVRMHVGDGKLPCRSNTFLNIFRRKKPGAGNAKKRQPEFSPSSQCPSAHAQL
# Molecular target: the molecule itself
# Experiment: SDS-PAGE and immunoblot of dimer bands in subcellular fractions
protein,measurement,value
B1,stoichiometry N,2
